Among the data in PMC4231364, “Functional characterization and structural modeling of synthetic polyester-degrading hydrolases from Thermomonospora curvata” (AMB Express, 2014) are Km and kcat values, retold here.

Substrate in data set [1]: CCCC(=O)Oc1ccc([N+](=O)[O-])cc1
In words: esterase assay in microplate, Michaelis-Menten kinetics. In kind it is biochemical, Thermomonospora curvata. Particulars: 25°C, pH 8.5. The text has this: esterase assay in microplate, Michaelis-Menten kinetics on Tcur0390

Substrate in data set [2]: CCCC(=O)Oc1ccc([N+](=O)[O-])cc1
Described as above. In kind it is biochemical, Thermomonospora curvata. Particulars: 25°C, pH 8.5. The source says:
esterase assay in microplate, Michaelis-Menten kinetics on Tcur1278
The source holds these as a separate data set.

As a reminder, the Km is the substrate concentration at which the rate is half of its maximum. A word on the kcat: it is the number of substrate molecules converted per active site and unit of time at saturation.

B1: Tcur0390 (Thermomonospora curvata DSM 43183) (protein)
chain: ANPYQRGPNPTEASITAARGPFNTAEITVSRLSVSGFGGGKIYYPTTTSEGTFGAIAISPGFTAYWSSLEWLGHRLASQGFVVIGIETNTTLDQPDQRGQQLLAALDYLTQRSAVRDRVDASRLAVAGHSMGGGGSLEAAKARTSLKAAIPLAPWNLDKTWPEVRTPTLIIGGELDAVAPVATHSIPFYNSLSNAPEKAYLELDNASHFFPNITNTQMAKYMIAWMKRFIDDDTRYTQFLCPPPSTGLLSDFSDARFTCPM
notes: mature protein without signal peptide, C-terminal His-tag, codon-optimised synthetic gene, pBAD TOPO, E. coli TOP10, IMAC purified, approx. 35 kDa
Regarding B1, in data set [1], the Km turned out to be 83.1 ± 11.1 µM and the kcat is 12.4 ± 0.4 s⁻¹.

B2: Tcur1278 (Thermomonospora curvata DSM 43183) (protein)
chain: ANPYQRGPDPTESLLRAARGPFAVSEQSVSRLSVSGFGGGRIYYPTTTSQGTFGAIAISPGFTASWSSLAWLGPRLASHGFVVIGIETNTRLDQPDSRGRQLLAALDYLTQRSSVRNRVDASRLAVAGHSMGGGGTLEAAKSRTSLKAAIPIAPWNLDKTWPEVRTPTLIIGGELDSIAPVATHSIPFYNSLTNAREKAYLELNNASHFFPQFSNDTMAKFMISWMKRFIDDDTRYDQFLCPPPRAIGDISDYRDTCPHT
notes: as for B1
Regarding B2, in data set [2], the Km turned out to be 88.8 ± 12.8 µM and the kcat came out at 2.3 ± 0.1 s⁻¹.
